T1: HpNikR WT (Helicobacter pylori G27 (from vector …, UniProt A1YSQ9 1-148))
T1 sequence: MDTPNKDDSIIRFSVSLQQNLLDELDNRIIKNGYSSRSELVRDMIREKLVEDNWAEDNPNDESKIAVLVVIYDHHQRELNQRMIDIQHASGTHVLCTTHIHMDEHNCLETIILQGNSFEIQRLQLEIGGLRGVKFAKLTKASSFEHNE


What was measured:
HpNikR K134A = HpNikR K134A (Helicobacter pylori G27, UniProt A1YSQ9 1-148, K134A); test: fluorescence anisotropy; apo (no Ni); FA: 5 nM DNA, 20 mM Tris pH 7.6, 100 mM NaCl, 3 mM MgSO4, temperature not stated (Ni loading 1.2 eq NiSO4 per monomer at RT). EMSA: 20 mM Tris pH 7.5, 100 mM KCl, 3 mM MgCl2, 0.1% IGEPAL, 5% glycerol, 0.1 mg/ml herring sperm DNA, RT; gel with 800 uM NiSO4 at 4 C; conditions: protein: recombinant; tags: none stated; chain copies: 4; label: fluorescein on internal thymine (T14 of strand 1); blunt
HpNikR Δ3aa = HpNikR Δ3aa (Helicobacter pylori G27, UniProt A1YSQ9 1-58+62-148, internal_change); test: fluorescence anisotropy; Ni(II)-bound; FA: 5 nM DNA, 20 mM Tris pH 7.6, 100 mM NaCl, 3 mM MgSO4, temperature not stated (Ni loading 1.2 eq NiSO4 per monomer at RT). EMSA: 20 mM Tris pH 7.5, 100 mM KCl, 3 mM MgCl2, 0.1% IGEPAL, 5% glycerol, 0.1 mg/ml herring sperm DNA, RT; gel with 800 uM NiSO4 at 4 C; conditions: protein: recombinant; tags: none stated; chain copies: 4; label: fluorescein on internal thymine (T14 of strand 1); blunt
HpNikR I127A = HpNikR I127A (Helicobacter pylori G27, UniProt A1YSQ9 1-148, I127A); test: as above; conditions: protein: recombinant; tags: none stated; chain copies: 4; label: fluorescein on internal thymine (T14 of strand 1); blunt
HpNikR Q81A = HpNikR Q81A (Helicobacter pylori G27, UniProt A1YSQ9 1-148, Q81A); test: as above; conditions: protein: recombinant; tags: none stated; chain copies: 4; label: fluorescein on internal thymine (T14 of strand 1); blunt
HpNikR K31A = HpNikR K31A (Helicobacter pylori G27, UniProt A1YSQ9 1-148, K31A); test: as above; conditions: protein: recombinant; tags: none stated; chain copies: 4; label: fluorescein on internal thymine (T14 of strand 1); blunt
HpNikR WT = target: T1, HpNikR WT; test: as above; conditions: protein: recombinant; tags: none stated (untagged purification); chain copies: 4; label: fluorescein on internal thymine (T14 of strand 1); blunt
HpNikR E56A = HpNikR E56A (Helicobacter pylori G27, UniProt A1YSQ9 1-148, E56A); test: as above; conditions: protein: recombinant; tags: none stated; chain copies: 4; label: fluorescein on internal thymine (T14 of strand 1); blunt
HpNikR N32A = HpNikR N32A (Helicobacter pylori G27, UniProt A1YSQ9 1-148, N32A); test: as above; conditions: protein: recombinant; tags: none stated; chain copies: 4; label: fluorescein on internal thymine (T14 of strand 1); blunt
HpNikR T92A = HpNikR T92A (Helicobacter pylori G27, UniProt A1YSQ9 1-148, T92A); test: as above; conditions: protein: recombinant; tags: none stated; chain copies: 4; label: fluorescein on internal thymine (T14 of strand 1); blunt
HpNikR E62A = HpNikR E62A (Helicobacter pylori G27, UniProt A1YSQ9 1-148, E62A); test: as above; conditions: protein: recombinant; tags: none stated; chain copies: 4; label: fluorescein on internal thymine (T14 of strand 1); blunt

Binder	Kd (HpNikR K134A)	Kd (HpNikR Δ3aa)	Kd (HpNikR I127A)	Kd (HpNikR Q81A)	Kd (HpNikR K31A)	Kd (HpNikR WT)	Kd (HpNikR E56A)	Kd (HpNikR N32A)	Kd (HpNikR T92A)	Kd (HpNikR E62A)
ureA promoter 32 bp (FA) (dsDNA) DNA 1: ATATAACACTAATTCATTTTAAATAATAATTA DNA 2: TAATTATTATTTAAAATGAATTAGTGTTATAT	1700 ± 700 nM	4.4 ± 1.3 nM	8.7 ± 1.3 nM	6.5 ± 1 nM	6.8 ± 1 nM	4.5 ± 0.6 nM	5.4 ± 0.1 nM	4.8 ± 0.9 nM	3.6 ± 0.2 nM	10.1 ± 1.1 nM
ureA-perf promoter 32 bp (dsDNA) DNA 1: ATATATTATTAATTCATTTTAAATAATAATTA DNA 2: TAATTATTATTTAAAATGAATTAATAATATAT	1000 ± 300 nM			3.9 ± 1.4 nM	4.1 ± 1 nM	4.7 ± 0.4 nM	5.9 ± 0.8 nM	1.3 ± 0.4 nM	2.6 ± 0.5 nM	2.9 ± 0.9 nM

From publication PMC9860126, “Mechanistic insights into the nickel-dependent allosteric response of the Helicobacter pylori NikR transcription factor”
